From patent US20210079111A1 (ABCYTE THERAPEUTICS, published 2021)

Assays:
[1] = target: CD19 CAR chain of CD19 CAR-mIL7 (CAR-1-CD19/CAR-2-IL-7, plasmid PC035), on transduced T cells; assay: flow cytometry, CD19 CAR-mIL7 T cells stained with Protein L
[2] = target: T1, CD19 on CD19 positive cells (Raji, Nalm-6) (human, UniProt P15391 20-556); assay: cell-based or functional assay
T1 sequence (looked up): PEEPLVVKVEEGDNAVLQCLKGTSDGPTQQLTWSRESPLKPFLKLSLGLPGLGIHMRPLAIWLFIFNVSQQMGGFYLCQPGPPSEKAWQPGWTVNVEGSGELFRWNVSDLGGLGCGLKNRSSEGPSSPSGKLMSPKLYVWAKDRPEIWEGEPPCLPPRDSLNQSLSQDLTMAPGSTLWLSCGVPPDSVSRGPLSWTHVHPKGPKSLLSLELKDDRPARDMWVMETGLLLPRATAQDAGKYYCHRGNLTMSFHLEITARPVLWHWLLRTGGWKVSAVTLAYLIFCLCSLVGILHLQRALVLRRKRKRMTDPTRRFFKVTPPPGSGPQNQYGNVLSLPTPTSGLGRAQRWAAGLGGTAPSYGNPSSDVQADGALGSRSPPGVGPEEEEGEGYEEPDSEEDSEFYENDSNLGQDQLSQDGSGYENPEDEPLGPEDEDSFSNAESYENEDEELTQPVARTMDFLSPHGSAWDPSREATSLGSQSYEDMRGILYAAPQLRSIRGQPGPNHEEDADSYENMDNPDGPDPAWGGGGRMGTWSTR

[3] = target: T2, CD20 on CD20 positive cells (Raji, Nalm-6) (UniProt P11836 1-297, limits assumed); assay: cell-based or functional assay
T2 sequence (looked up): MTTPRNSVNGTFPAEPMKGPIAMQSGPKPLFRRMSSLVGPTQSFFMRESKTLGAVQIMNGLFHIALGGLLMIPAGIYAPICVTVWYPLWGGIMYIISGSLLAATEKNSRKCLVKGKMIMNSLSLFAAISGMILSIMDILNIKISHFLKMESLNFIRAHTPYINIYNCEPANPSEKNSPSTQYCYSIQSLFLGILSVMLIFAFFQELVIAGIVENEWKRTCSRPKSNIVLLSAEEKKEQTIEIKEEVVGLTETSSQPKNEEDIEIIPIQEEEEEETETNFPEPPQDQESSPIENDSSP

## Protein L
[1]
  percent positive cells: 49%

B1: CAR-1-CD19 (full humanized anti-CD19 single CAR), on transduced T cells (other)
chain: DIQMTQSPSSLSASVGDRVTITCRASQDISKYLNWYQQKPGKAPKLLIYHTSRLHSGVPSRFSGSGSGTDYTLTISSLQPEDFATYYCQQGNTLPYTFGGGTKVEIKGSTSGGGSGGGSGGGGSSQVQLQESGPGLVKPSQTLSLTCTVSGVSLPDYGVSWIRQPPGKGLEWLGVIWGSETTYYNSALKSRLTISRDNSKNTLYLQMNSLRAEDTAVYYCAKHYYYGGSYAMDYWGQGTTVTVSSTTTPAPRPPTPAPTIASQPLSLRPEACRPAAGGAVHTRGLDFACDFWLPIGCAAFVVVCILGCILICWLTKKKYSSSVHDPNGEYMFMRAVNTAKKSRLTDVTLRVKFSRSADAPAYKQGQNQLYNELNLGRREEYDVLDKRRGRDPEMGGKPRRKNPQEGLYNELQKDKMAEAYSEIGMKGERRRGKGHDGLYQGLSTATKDTYDALHMQALPPR
[2]
  target cell killing at E/T ratio at 10:1, 4 h, Raji and Nalm-6 co-culture (flow cytometry, CFSE/Annexin/PI): > 90%

B2: CAR-1-CD20 (full humanized anti-CD20 single CAR), on transduced T cells (other)
chain: EIVLTQSPATLSLSPGERATMTCRASSSVNYMDWYQQKPGQAPRPWIYATSNLASGVPARFSGSGSGTDFTLTISSLEPEDFAVYYCQQWSFNPPTFGGGTKVEIKGSTSGGGSGGGSGGGGSSQVQLVQSGAEVKKPGASVKVSCKASGYTFTSYNMHWVRQAPGQGLEWIGAIYPGNGDTSYNQKFKGKATLTRDTSTSTVYMELSSLRSEDTAVYYCARSNYYGSSYWFFDVWGQGTTVTVSSTTTPAPRPPTPAPTIASQPLSLRPEACRPAAGGAVHTRGLDFACDFWLPIGCAAFVVVCILGCILICWLTKKKYSSSVHDPNGEYMFMRAVNTAKKSRLTDVTLRVKFSRSADAPAYKQGQNQLYNELNLGRREEYDVLDKRRGRDPEMGGKPRRKNPQEGLYNELQKDKMAEAYSEIGMKGERRRGKGHDGLYQGLSTATKDTYDALHMQALPPR
[3]
  target cell killing at E/T ratio at 10:1, 4 h, Raji and Nalm-6 co-culture (flow cytometry, CFSE/Annexin/PI): > 80%
